Measured values reported in patent US20220096654A1, “PYRROLOBENZODIAZEPINE-ANTIBODY CONJUGATES AND USES THEREOF” (ADC THERAPEUTICS SA, priority 2020, published 2022).

What was measured:
Nalm6 (CD45-) = assay: Cell viability assay 5 days (PrestoBlue), Nalm6; type: cell-based, human; details: rat IgG2b ADC, n=3
Protocol: (§1) OCIM1, Jurkat and Nalm6 cells were seeded at a final concentration of 1.275×10^4/mL and for 5 days in presence of rat IgG2b Mab or ADC or medium (in triplicate) in wells of flat bottom 96-well plates. 293T cells were seeded at 9.3×10^3 cells per 100 uL per well in flat bottom 96-well plates and allowed to adhere the plate for up to 24 hours. 293T cells were subsequently cultured with rat IgG2b Mabs or ADC or medium (in triplicate wells) as described above. PrestoBlue® Cell viability Reagent (Thermo Fisher Scientific) was added to each and incubated for up to 1.5 hours. Fluorescence intensity from each well was detected using a FLUOstar OPTIMA microplate reader (BMG Labtech). Data was plotted using Prism 8.0 and sigmoid dose-response non-linear regression was used to determine EC50 values. Data points are mean±s.d. for representative experiments.

293T (CD45-) = assay: Cell viability assay 5 days (PrestoBlue), 293T; type: cell-based, human; details: rat IgG2b ADC, n=3
Protocol: as §1

fLuc+ OCIM1 cells [1] = assay: AML model in NSG mice, treatment the day after cell injection; type: in vivo; details: 1 mg/kg or 5 mg/kg i.v. the day after OCIM1 injection
Protocol: (§2) NSG mice were transplanted with 7.5×10^6 luciferase expressing fLuc+ OCIM1 cells i.v. On the following day, unconjugated rat IgG2b antibodies or ADCs were injected i.v. via a tail vein at a dose of 1 mg/kg or 5 mg/kg. Mice were regularly monitored for signs of morbidity for the duration of the experiment. For imaging, mice were injected intraperitoneally with 200 μl of 15 mg/mL D-luciferin (Regis Technologies) in PBS. Mice were subsequently anesthetized with 4% isoflurane and maintained at 2% isoflurane. Ten minutes after injection of D-luciferin, mice were placed with anterior side up inside a IVIS Lumina III (PerkinElmer). A sub-saturating image was captured using the auto-exposure setting in the Living Image software (v4.5). Quantification and preparation of images was also carried out using the same software.

fLuc+ OCIM1 cells [2] = assay: Established AML model in NSG mice, treatment 10 days post-injection; type: in vivo
Protocol: as §2, with “7.5×10^6” for “7.5×10^6 luciferase expressing”, “At 10 days post-injection of AML cells,” for “On the following day,”, “antibody” for “rat IgG2b antibodies”

human CD45+ cells = assay: Allogeneic stem cell transplant model in humanized NSG mice, comparison of payloads; type: in vivo; details: 5 mg/kg
Protocol: Adult NSG mice (Charles River Laboratories) were sublethally irradiated with 2.5 Gy in a ^137Cs irradiator. On the following day, mice were injected with 0.5×10^6 freshly thawed cryopreserved human CD34+ cells from a health donor were injected via the tail vein in 150 μL PBS using a 29 gauge MicroFine Plus insulin syringe (BD). Engraftment of human cells in the blood was assessed periodically from 6 weeks after transplantation. At 10 weeks post-transplant, humanized NSG mice were assigned into cohorts with similar median human CD45+ cell engraftment in the blood, as determined by flow cytometry. Mice were injected with PBS or 1 mg/kg YTH24.5-B1. Sixteen 16 days after treatment, mice were transplanted with 0.5×10^6 GFP+CD34+ cells from another healthy donor. Irradiated NSG […] were also transplanted with the GFP+CD34+ from the allogeneic healthy donor as a control for engraftment of the GFP+CD34+ cells. 8 weeks after transplantation of GFP+ cells, mice were culled and blood, spleen and bone marrow taken for analysis by flow cytometry.
Experimental schedule is as previously described in example 16 but with the following modifications. Humanized NSG mice at 10 weeks post-transplant were injected with PBS or 1 mg/kg YTH24.5-B1, YTH54.12-B1, Isotype-B1, YTH24.5-B4 and Isotype-3376. Isotype-B2 and YTH24.5-B2 was given at a dose of 5 mg/kg. Transplantation of 0.5×10^6 GFP+CD34+ from an allogeneic human donor and analysis at 8 weeks post-transplant of GFP+ cells was carried out as previously described.

B1: YTH24.5-B2: rat IgG2b anti-CD45 antibody YTH24.5 conjugated to PBD drug-linker B2 (drawing 44) (conjugate)
heavy: QVNLLQSGAALVKPGASVKLSCKASSYTFTDYYIHWVKQSHGKTLEWIGYINPKSGFTNYNEKFRRKATLTVDKSTNTAYMDISRLTSEDSATYYCTRRTGVIPMDAWGQGASVTVSSAQTTAPSVYPLAPGCGDTTSSTVTLGCLVKGYFPEPVTVTWNSGALSSDVHTFPAVLQSGLYTLTSSVTSSTWPSQTVTCNVAHPASSTKVDKKVERRNGGIGHKCPTCPTCHKCPVPELLGGPSVFIFPPKPKDILLISQNAKVTCVVVDVSEEEPDVQFSWFVNNVEVHTAQTQPREEQYNSTFRVVSALPIQHQDWMSGKEFKCKVNNKALPSPIEKTISKPKGLVRKPQVYVMGPPTEQLTEQTVSLTCLTSGFLPNDIGVEWTSNGHIEKNYKNTEPVMDSDGSFFMYSKLNVERSRWDSRAPFVCSVVHEGLHNHHVEKSISRPPGK
light: DVVMTQTPVSLSVSLGGQVSISCRSSQSFVSSDGNTYLNWYLQKPGQSPQLLIYKVSNRLSGVPDRFSGSGSGTDFTLKISRVEHDDLGVYYCGQASKIPLTFGSGTKLEIKRADAAPTVSIFPPSMEQLTSGGATVVCFVNNFYPRDISVKWKIDGSEQRDGVLDSVTDQDSKDSTYSMSSTLSLTKVEYERHNLYTCEVVHKTSSSPVVKSFNRNEC
EC50 (Nalm6 (CD45-)): 0.0301 nM | EC50 (293T (CD45-)): > 6 nM | tumor (bioluminescence) signal (fLuc+ OCIM1 cells [1]): Low/absent tumor signal | period of tumor regression / low tumor signal (fLuc+ OCIM1 cells [2]): shortest period of tumor regression | time within which tumor signal increased again (fLuc+ OCIM1 cells [2]): ≤ 10 days | mice alive at 60 days (fLuc+ OCIM1 cells [2]; cohorts of 5 mice, all tumor-bearing): 1/5 | percentage GFP+ human CD34+ cells in the bone marrow (mean) (human CD45+ cells): 72.14% | mean % hCD45+ engraftment in the bone marrow (human CD45+ cells; 8 weeks after allogeneic GFP+ cells, PBS 14.12%): 1.089%
